The text below walks through data of patent publication US20150329626A1.

For the test, the target named is human VEGFR2 on cells (ECFC, HMVEC-d) (human) (UniProt P35968). Put plainly: cell-based or functional assay.
human VEGFR2 on cells (ECFC, HMVEC-d) (human), sequence (P35968 20-1356): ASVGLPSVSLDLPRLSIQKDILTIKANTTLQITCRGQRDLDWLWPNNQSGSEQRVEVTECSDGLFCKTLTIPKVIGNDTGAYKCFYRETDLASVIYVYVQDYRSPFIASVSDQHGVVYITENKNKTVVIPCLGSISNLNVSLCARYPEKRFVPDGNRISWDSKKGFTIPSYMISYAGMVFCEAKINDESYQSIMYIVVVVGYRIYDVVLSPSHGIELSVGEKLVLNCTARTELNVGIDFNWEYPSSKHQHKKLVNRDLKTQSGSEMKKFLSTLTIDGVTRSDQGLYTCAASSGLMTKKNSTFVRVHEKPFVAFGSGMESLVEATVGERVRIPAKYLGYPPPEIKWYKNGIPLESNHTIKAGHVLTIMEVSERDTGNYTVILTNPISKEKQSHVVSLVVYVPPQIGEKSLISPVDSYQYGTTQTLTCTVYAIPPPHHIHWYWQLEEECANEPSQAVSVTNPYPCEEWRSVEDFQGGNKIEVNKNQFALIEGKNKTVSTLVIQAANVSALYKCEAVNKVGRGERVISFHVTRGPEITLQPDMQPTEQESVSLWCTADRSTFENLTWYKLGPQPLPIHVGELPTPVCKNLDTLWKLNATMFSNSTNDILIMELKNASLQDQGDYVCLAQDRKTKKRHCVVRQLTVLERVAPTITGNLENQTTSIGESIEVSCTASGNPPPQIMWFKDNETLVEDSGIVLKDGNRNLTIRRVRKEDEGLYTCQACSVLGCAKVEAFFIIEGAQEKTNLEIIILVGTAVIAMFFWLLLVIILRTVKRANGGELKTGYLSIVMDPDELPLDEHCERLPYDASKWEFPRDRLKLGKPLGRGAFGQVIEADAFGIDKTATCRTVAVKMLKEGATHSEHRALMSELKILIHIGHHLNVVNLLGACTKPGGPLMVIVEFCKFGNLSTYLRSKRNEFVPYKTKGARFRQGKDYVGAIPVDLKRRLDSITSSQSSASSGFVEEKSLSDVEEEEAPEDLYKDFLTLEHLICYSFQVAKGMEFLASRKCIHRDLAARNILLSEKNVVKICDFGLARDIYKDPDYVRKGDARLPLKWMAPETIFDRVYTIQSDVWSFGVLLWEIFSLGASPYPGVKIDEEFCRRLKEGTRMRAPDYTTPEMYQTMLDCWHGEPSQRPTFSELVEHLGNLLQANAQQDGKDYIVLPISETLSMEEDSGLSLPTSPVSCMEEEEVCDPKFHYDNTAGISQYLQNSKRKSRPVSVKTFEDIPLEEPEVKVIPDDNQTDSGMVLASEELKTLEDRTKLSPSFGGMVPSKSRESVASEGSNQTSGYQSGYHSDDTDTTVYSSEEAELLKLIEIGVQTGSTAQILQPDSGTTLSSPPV

Substance IMC-1121B (antibody) yielded an inhibition of human VEGF165-induced proliferation of HMVEC-d (IC50) of 31.4 nM.
